Experimental data as given in article PMC6733924.

Legend:
[1] = target: GST fused to the TRPM8 N-terminal tail; test: pull-down; purified GST-fusion proteins of the TRPM8 tails on beads incubated overnight at 4 °C with in vitro translated AR proteins, no testosterone; fluorescence imaging or anti-AR immunoblot; normalised to the input
[2] = target: GST fused to the TRPM8 C-terminal tail; test: pull-down; as a4, with 1, 10 or 100 nM testosterone during incubation of in vitro translated AR with the N- or C-terminal tail of TRPM8

in vitro translated AR, sequence (P10275 whole entry, the tested form may be a part): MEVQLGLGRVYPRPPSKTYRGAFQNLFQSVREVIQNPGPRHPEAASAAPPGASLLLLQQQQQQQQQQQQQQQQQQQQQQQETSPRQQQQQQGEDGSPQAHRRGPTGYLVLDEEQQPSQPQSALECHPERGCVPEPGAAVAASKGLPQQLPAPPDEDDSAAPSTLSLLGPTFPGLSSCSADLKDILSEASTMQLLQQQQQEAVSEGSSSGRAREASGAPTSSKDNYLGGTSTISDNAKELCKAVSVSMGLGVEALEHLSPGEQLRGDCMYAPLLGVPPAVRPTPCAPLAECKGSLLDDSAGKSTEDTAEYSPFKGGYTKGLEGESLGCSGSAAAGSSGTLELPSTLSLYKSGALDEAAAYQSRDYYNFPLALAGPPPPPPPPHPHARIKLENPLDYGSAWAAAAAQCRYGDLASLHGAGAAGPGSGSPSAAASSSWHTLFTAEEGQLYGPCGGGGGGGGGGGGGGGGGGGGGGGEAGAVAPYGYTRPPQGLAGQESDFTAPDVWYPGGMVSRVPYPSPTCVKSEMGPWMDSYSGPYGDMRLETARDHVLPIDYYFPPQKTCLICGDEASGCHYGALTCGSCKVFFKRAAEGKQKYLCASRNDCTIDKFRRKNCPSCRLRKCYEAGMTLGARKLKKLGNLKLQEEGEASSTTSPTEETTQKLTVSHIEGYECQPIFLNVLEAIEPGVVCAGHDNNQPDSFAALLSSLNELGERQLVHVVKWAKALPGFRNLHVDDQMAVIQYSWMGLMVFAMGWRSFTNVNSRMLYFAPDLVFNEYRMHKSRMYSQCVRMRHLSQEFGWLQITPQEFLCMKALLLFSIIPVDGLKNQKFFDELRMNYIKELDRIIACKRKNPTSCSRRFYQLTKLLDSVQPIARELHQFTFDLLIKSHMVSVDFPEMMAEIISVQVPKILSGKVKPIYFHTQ

in vitro translated AR (from UniProt P10275 1-920) (natural protein)
percent stronger pull-down by M8-Nt than by M8-Ct [1]: 48%
percent decrease of pulled-down AR with 1 nM testosterone [2]: 43%
percent decrease of pulled-down AR with 10 nM testosterone [2]: 65.6%
percent decrease of pulled-down AR with 100 nM testosterone [2]: 93.1%
